Results on 1 substance are retold here after paper PMC3745449.

In test [1] the target is His6-tagged N-terminal domain of turkey pancreatic lipase (turkey).
Test [2] has the same target. The source holds these as a separate data set.

For the substance Turkey colipase (natural protein), the time for which N-TPL stays active in tributyrin (TC4) hydrolysis (pH-Stat, pH 8.5, 37°C) with colipase; without colipase the activity is lost after 3 min in test [1] was > 8 min. In addition, the increase of N-TPL lipase activity on tributyrin (TC4) when colipase is present in the hydrolysis medium in test [2] came to 15%.
